Consider two molecules from patent US20190142971A1, “FORMULATION AND DELIVERY OF MODIFIED NUCLEOSIDE, NUCLEOTIDE, AND NUCLEIC ACID COMPOSITIONS” (ModernaTX, Inc., priority 2013, published 2019).

Read-outs that look alike come from different tables or passages of the source.

In data set [1] the test system is mice. The experiment in a line: Example 39: Factor IX mmRNA IM in mice, serum Factor IX at 13 hours. Type of data set: in vivo. Particulars: 2×100 ug/mouse IM. As for the experimental part:
Human Factor IX mmRNA (Gen1; fully modified 5-methycytosine and pseudouridine) formulated in formulation buffer was delivered to mice via intramuscular injection.
The mice were bled at 13 hours after the intramuscular injection to determine the concentration of human the polypeptide in serum in pg/mL.

The test system of data set [2] is HEK293A. The experiment in a line: Example 44: signal sequence exchange, secreted G-CSF ELISA (Table 70). The class given is cell-based. Particulars: 293A, 250 ng mRNA, Lipofectamine 2000, supernatant 24 hrs. The text has this: (§1) These variants included the G-CSF constructs encoding either the wild-type N terminal secretory signal peptide sequence ([…]; SEQ ID NO: 19), no secretory signal peptide sequence, or secretory signal peptide sequences taken from other mRNAs. These included sequences where the wild type GCSF signal peptide sequence was replaced with the signal peptide sequence of either: human α-1-anti trypsin (AAT) ([…]; SEQ ID NO: 20), human Factor IX (FIX) ([…]; SEQ ID NO: 21), human Prolactin (Prolac) ([…]; SEQ ID NO: 22), or human Albumin (Alb) ([…]; SEQ ID NO: 23).
(§2) 250 ng of modified mRNA encoding each G-CSF variant was transfected into HEK293A (293A in the table), mouse myoblast (MM in the table) (C2C12, CRL-1772, ATCC) and rat myoblast (RM in the table) (L6 line, CRL-1458, ATCC) cell lines in a 24 well plate using 1 ul of Lipofectamine 2000 (Life Technologies), each well containing 300,000 cells. […] The data shown in Table 70 reveal that cells transfected with G-CSF mmRNA encoding the Albumin signal peptide secrete at least 12 fold more G-CSF protein than its wild type counterpart.

Data set [3] has as its system mouse myoblast (C2C12). The description is as above. Type of data set: cell-based. Particulars: MM (mouse myoblast C2C12), 250 ng mRNA, supernatant 24 hrs.
Text: as §1, §2

In data set [4] the test system is rat myoblast (L6 line). Described as above. Type of data set: cell-based. The note with it: RM (rat myoblast L6), 250 ng mRNA, supernatant 24 hrs.
Text: as §1, §2

Data set [5] can be described thus: Example 64A: Factor IX mRNA in serum-free media, peptides by MALDI. The class given is cell-based. The text has this: The cell culture supernatant was collected and subjected to trypsin digestion before undergoing 2-dimensional HPLC separation of the peptides. Matrix-assisted laser desorption/ionization was used to detect the peptides. 8 peptides were detected and 7 of the detected peptides are unique to Factor IX.

In data set [6] the test system is HEK 293A cells. The experiment in a line: Example 64B: Factor IX mRNA half-life by quantitative Real-Time PCR. Type of data set: cell-based, Human. Particulars: HEK293. As for the experimental part: The transfection complexes were removed 3 hours after transfection. […] Total RNA was isolated and used for cDNA synthesis.
(In general: Real-time PCR tracks product formation cycle by cycle.)

The test system of data set [7] is mice. The note with it: for Serum Concentration 8-12 hours after administration: Factor IX; for Factor IX Protein Expression, Conc: LNP IV, mice, 8 hrs.
Data set [8] concerns mice. The experiment in a line: Example 29: mCherry LNP IV in mice, liver and spleen by IHC, western blot, FACS. Type of data set: in vivo. Particulars: LNP NPA-003-5, 100 ug IV, 24 hrs. As to the method: The mCherry formulation, listed in Table 54, was characterized by particle size, zeta potential, and encapsulation.
Mice were sacrificed at 24 hrs after dosing. The liver and spleen from the mice administered with mCherry modified mRNA formulations were analyzed by immunohistochemistry (IHC), western blot, or fluorescence-activated cell sorting (FACS).

The subject of data set [9] is HEK293 cells. The experiment in a line: Example 46B: percent modification, HEK293 G-CSF ELISA (Table 75). The note with it: HEK293, 250 ng mRNA with RNAiMAX, supernatant after 16 hours. The class given is cell-based, Human. Background: ELISA stands for enzyme-linked immunosorbent assay.
Data set [10] has as its system peripheral blood mononuclear cells (PBMC). The class given is cell-based, human. As to the method: 500 ng of G-CSF mRNA modified with 5-methylcytosine (5mC) and pseudouridine (pseudoU) or unmodified G-CSF mRNA was transfected with 0.4 uL of Lipofectamine 2000 into peripheral blood mononuclear cells (PBMC) from three normal blood donors (D1, D2, and D3). […] The supernatant was harvested 6 hours and 18 hours after transfection and run by ELISA to determine the protein expression. The expression of G-CSF, IFN-alpha, and TNF-alpha for Donor 1 is shown in Table 88, Donor 2 is shown in Table 89 and Donor 3 is shown in Table 90.

The test system of data set [11] is rats. The experiment in a line: Example 67: intravitreal mCherry/luciferase mRNA in rats, F-microscopy (Table 100). The class given is in vivo. Particulars: saline, 18 hours. The text has this: The sample was compared against a control of saline only delivered intravitreally.
The formulation will be administered to the left or right eye of each animal on day 1 while the animal is anesthetized. On the day prior to administration gentamicin ophthalmic ointment or solution was applied to both eyes twice. The gentamicin ophthalmic ointment or solution was also applied immediately following the injection and on the day following the injection. Prior to dosing, mydriatic drops (1% tropicamide and/or 2.5% phenylephrine) are applied to each eye.
18 hours post dosing the eyes receiving the dose of mCherry and delivery buffer are enucleated and each eye was separately placed in a tube containing 10 mL 4% paraformaldehyde at room temperature for overnight tissue fixation. The following day, eyes will be separately transferred to tubes containing 10 mL of 30% sucurose and stored at 21° C. until they were processed and sectioned. The slides prepared from different sections were evaluated under F-microscopy.

The subject of data set [12] is BJ fibroblasts. Particulars: 250 ng transfected daily for 5 days.

For “Factor IX: modified mRNA encoding human Factor IX, SEQ ID NO: 8, Cap1, fully modified with 5-methylcytosine and pseudouridine”, the “Factor IX in serum” value in data set [1] is reported as 1600 pg/mL. Also, the “secreted G-CSF protein” value was found to be 11675 pg/mL in data set [2], 6175 pg/mL in [3] and 11675 pg/mL in data set [4]. Also, the “Factor IX protein expression (peptides by MALDI)” value in data set [5] is recorded as “able to express full-length Factor IX protein”. Also, in data set [6], the “half-life of mRNA” value was in the range of 8 to 10 h. Besides, the “Factor IX protein expression determined by ELISA” value in [7] (100 ug dose group) was 3000 to 11000 ng/mL. Further, the “Serum Concentration 8-12 hours after administration” value is approximately 1.6 ng/mL in data set [7] (IM, 2 × 100 ug); approximately 40 ng/mL in data set [7] (IV (LNP), 1 ug); approximately 400 ng/mL in data set [7] (IV (LNP), 10 ug); ~3,000-10,000 ng/ml in [7] (IV (LNP), 100 ug). Besides, the “Factor IX Protein Expression, Conc” value came to 383.04 ng/mL in [7] (dose 10 ug); 3247.75 ng/mL in data set [7] (dose 100 ug, dilution factor 50x); 11177.20 ng/mL in [7] (dose 100 ug, dilution factor 250x).

B1: mCherry: mCherry mRNA (SEQ ID NO: 5; SEQ ID NO: 12 in Example 29), Cap1, fully modified with 5-methylcytosine and pseudouridine (nucleic acid)
chain: GGGAAAUAAGAGAGAAAAGAAGAGUAAGAAGAAAUAUAAGAGCCACCAUGGUAUCCAAGGGGGAGGAGGACAACAUGGCGAUCAUCAAGGAGUUCAUGCGAUUCAAGGUGCACAUGGAAGGUUCGGUCAACGGACACGAAUUUGAAAUCGAAGGAGAGGGUGAAGGAAGGCCCUAUGAAGGGACACAGACCGCGAAACUCAAGGUCACGAAAGGGGGACCACUUCCUUUCGCCUGGGACAUUCUUUCGCCCCAGUUUAUGUACGGGUCCAAAGCAUAUGUGAAGCAUCCCGCCGAUAUUCCUGACUAUCUGAAACUCAGCUUUCCCGAGGGAUUCAAGUGGGAGCGGGUCAUGAACUUUGAGGACGGGGGUGUAGUCACCGUAACCCAAGACUCAAGCCUCCAAGACGGCGAGUUCAUCUACAAGGUCAAACUGCGGGGGACUAACUUUCCGUCGGAUGGGCCGGUGAUGCAGAAGAAAACGAUGGGAUGGGAAGCGUCAUCGGAGAGGAUGUACCCAGAAGAUGGUGCAUUGAAGGGGGAGAUCAAGCAGAGACUGAAGUUGAAAGAUGGGGGACAUUAUGAUGCCGAGGUGAAAACGACAUACAAAGCGAAAAAGCCGGUGCAGCUUCCCGGAGCGUAUAAUGUGAAUAUCAAGUUGGAUAUUACUUCACACAAUGAGGACUACACAAUUGUCGAACAGUACGAACGCGCUGAGGGUAGACACUCGACGGGAGGCAUGGACGAGUUGUACAAAUGAUAAGCUGCCUUCUGCGGGGCUUGCCUUCUGGCCAUGCCCUUCUUCUCUCCCUUGCACCUGUACCUCUUGGUCUUUGAAUAAAGCCUGAGUAGGAAG
modifications: Cap1; 5-methylcytosine and pseudouridine
B1: the “mCherry expression in liver (histology)” value in data set [8] is recorded as “uniform mCherry expression throughout the section”. The “mCherry expression in spleen leukocyte populations (FACS)” value in [8] is given as “negative for mCherry expression”. Moreover, the “G-CSF Expression” value in data set [9] stood at 0 ng/mL. Further, the G-CSF is 0 pg/mL in [10] (PBMC Donor 1, 500 ng mRNA, 6 hours); 0 pg/mL in [10] (PBMC Donor 1, 500 ng mRNA, 18 hours); 0 pg/mL in data set [10] (PBMC Donor 2, 500 ng mRNA, 6 hours); 7 pg/mL in [10] (PBMC Donor 2, 500 ng mRNA, 18 hours); 0 pg/mL in data set [10] (PBMC Donor 3, 500 ng mRNA, 6 hours); 0 pg/mL in data set [10] (PBMC Donor 3, 500 ng mRNA, 18 hours). Besides, the “mCherry expression in eye sections” value in data set [11] is “Positive expression was seen”. In addition, the IFN-beta in data set [12] (6 hours) turned out to be 0 pg/mL; in data set [12] (Day 1), 238 pg/mL; in [12] (Day 2), 113 pg/mL; in data set [12] (Day 3), 413 pg/mL; in [12] (Day 4), 413 pg/mL; in data set [12] (Day 5), 213 pg/mL. Besides, the IL-6 in [12] (6 hours) amounted to 3278 pg/mL; in data set [12] (Day 1) it was 3893 pg/mL; in data set [12] (Day 2), 1833 pg/mL; in data set [12] (Day 3), 25539 pg/mL; in data set [12] (Day 4), 29233 pg/mL; in data set [12] (Day 5), 20178 pg/mL.
